Earlier results on 2 substances are cited in PMC3508151.

Broadly, the Kd is the free concentration of one partner at which half of the binding sites on the other are occupied at equilibrium, for simple one-to-one binding.

Read-outs that look alike come from different tables or passages of the source.

Data set [1] has as its target IL-13Rα1 (Homo sapiens) (UniProt P78552). Conditions: cited from earlier work.
Data set [2] shares this target. Conditions: cited from earlier work. This is another data set of the same source.

IL-13Rα1 (Homo sapiens), sequence (P78552 22-343): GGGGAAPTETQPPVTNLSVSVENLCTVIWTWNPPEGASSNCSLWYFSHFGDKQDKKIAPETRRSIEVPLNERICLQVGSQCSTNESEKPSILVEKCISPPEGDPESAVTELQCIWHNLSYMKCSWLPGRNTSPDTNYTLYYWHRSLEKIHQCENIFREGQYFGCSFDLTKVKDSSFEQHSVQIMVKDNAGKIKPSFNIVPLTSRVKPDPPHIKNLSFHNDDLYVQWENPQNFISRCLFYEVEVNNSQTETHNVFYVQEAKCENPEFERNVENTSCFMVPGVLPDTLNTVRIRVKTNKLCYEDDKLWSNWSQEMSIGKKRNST
IL-4, sequence (P05112 25-153): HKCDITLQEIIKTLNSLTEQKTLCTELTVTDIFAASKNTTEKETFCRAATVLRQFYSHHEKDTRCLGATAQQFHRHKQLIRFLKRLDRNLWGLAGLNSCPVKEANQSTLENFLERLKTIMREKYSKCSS
IL-13, sequence (P35225 25-146): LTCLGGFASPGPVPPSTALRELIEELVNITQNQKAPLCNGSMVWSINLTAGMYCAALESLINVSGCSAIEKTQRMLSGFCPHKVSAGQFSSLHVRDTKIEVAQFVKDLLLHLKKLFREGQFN

Turning to IL-4 (from UniProt P05112), in data set [1], the Kd is over 1000 nM.

Consider IL-13, for which the Kd in data set [2] was 30 nM.
